Test results reported in the supplement of paper PMC6757056.
± gives the standard deviation of the averaged measurements.

B1: library; a variant is named by its letters at N, in order (parent)
chain: GCUGUCACCGAGAAACUGUGAAGUAUAUCUUAAACCUGGGCACUUAAAAGAUAUAUGGAGUUAGUAGUGCAACCUGCUCGGUCUGAUGAGUCCNNNNNNGGACGAAACAGC

Key:
cyclic di-GMP [1] = variants of: B1; test: normalized RNA/DNA level without ligand (relative to sTRSVctl = 100) (log10 (% of sTRSVctl)); HEK293T; ligand: cyclic di-GMP (c-di-GMP-II aptamer); higher = less ribozyme self-cleavage, higher mRNA level; details: reporter: mCherry (pCS4076), ligand present: no
How it was run: (§1)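 RNA level was computed as RNA reads over DNA reads divided by a spiked-in non-cleaving sequence or by the top sequences, then scaled and log-transformed. Scaling was ×100 with log10, the top group was 25 sequences, and the threshold was ≥100 DNA reads. The reads came from HEK293T cells transfected at 4 µg per 6-well well with ribozyme switch library plasmids (mCherry, or eGFP in some ligand experiments). Total RNA was extracted with EDTA 72 h after transfection, with any ligand added 1 h before it.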

cyclic di-GMP [2] = variants of: B1; test: normalized RNA/DNA level with ligand (relative to sTRSVctl = 100) (log10 (% of sTRSVctl)); HEK293T; ligand: cyclic di-GMP (c-di-GMP-II aptamer); ligand concentration (+) RNA-Seq: 1 mM; higher = less ribozyme self-cleavage, higher mRNA level; details: reporter: mCherry (pCS4076), ligand present: yes
How it was run: as §1

Variant | normalized RNA/DNA level without ligand (log10) (cyclic di-GMP [1]) | normalized RNA/DNA level with ligand (log10) (cyclic di-GMP [2])
UUCACC | 1.778 ± 0.0039 | 1.89 ± 0.078
UUCACA | 1.81 ± 0.029 | 1.89 ± 0.16
UUCACG | 1.803 ± 0.018 | 1.9 ± 0.09
CUAUAU | 1.64 ± 0.035 | 1.77 ± 0.13
CUAUAG | 1.679 ± 0.012 | 1.84 ± 0.15
CUAUAC | 1.696 ± 0.016 | 1.83 ± 0.1
GUAUUA | 1.578 ± 0.0077 | 1.75 ± 0.1
GUAUUC | 1.48 ± 0.036 | 1.7 ± 0.11
GUAUGC | 1.56 ± 0.065 | 1.75 ± 0.084
GUAUGG | 1.53 ± 0.16 | 1.7 ± 0.042
GUAUGU | 1.6045 ± 0.00047 | 1.77 ± 0.087
CUAUUU | 1.59 ± 0.024 | 1.75 ± 0.08
CUAUUC | 1.7 ± 0.012 | 1.85 ± 0.1
CUAUUG | 1.626 ± 0.0055 | 1.81 ± 0.1
AUAGUG | 1.56 ± 0.068 | 1.71 ± 0.083
AUAGUC | 1.675 ± 0.0068 | 1.83 ± 0.088
GUAUCG | 1.63 ± 0.043 | 1.81 ± 0.098
GUAUCC | 1.73 ± 0.028 | 1.86 ± 0.13
GUAUCU | 1.68 ± 0.038 | 1.82 ± 0.084
CUAUCG | 1.79 ± 0.047 | 1.88 ± 0.12
CUAUCA | 1.538 ± 0.014 | 1.74 ± 0.038
AUAUUG | 1.6 ± 0.052 | 1.78 ± 0.15
AUAUUU | 1.67 ± 0.018 | 1.84 ± 0.11
AUAUUA | 1.56 ± 0.05 | 1.76 ± 0.057

Variant | normalized RNA/DNA level without ligand (log10) (cyclic di-GMP [1]) | normalized RNA/DNA level with ligand (log10) (cyclic di-GMP [2])
AUAUUC | 1.707 ± 0.0056 | 1.84 ± 0.12
GUAGUU | 1.61 ± 0.043 | 1.75 ± 0.061
GUAGUG | 1.744 ± 0.0031 | 1.81 ± 0.12
GUAGUC | 1.37 ± 0.12 | 1.55 ± 0.054
AUAGGA | 1.35 ± 0.13 | 1.55 ± 0.15
AUAGGC | 1.55 ± 0.023 | 1.76 ± 0.18
AUCAGG | 1.62 ± 0.072 | 1.77 ± 0.12
AUCAGU | 1.67 ± 0.065 | 1.82 ± 0.02
AUCAGC | 1.82 ± 0.025 | 1.88 ± 0.13
CUAGUA | 1.56 ± 0.046 | 1.7 ± 0.04
CUAGUC | 1.75 ± 0.039 | 1.83 ± 0.055
CUAGUU | 1.739 ± 0.0023 | 1.89 ± 0.06
CUAGUG | 1.529 ± 0.0021 | 1.69 ± 0.12
CUAGCU | 1.72 ± 0.027 | 1.85 ± 0.13
UUAUCU | 1.704 ± 0.0044 | 1.85 ± 0.083
UUAUCA | 1.76 ± 0.11 | 1.91 ± 0.14
UUAUCG | 1.783 ± 0.014 | 1.86 ± 0.14
AUCAAU | 1.64 ± 0.026 | 1.77 ± 0.15
AUCAAA | 1.57 ± 0.059 | 1.77 ± 0.074
AUCAAG | 1.57 ± 0.1 | 1.76 ± 0.062
AUCAAC | 1.61 ± 0.063 | 1.8 ± 0.09
GUCACC | 1.708 ± 0.011 | 1.85 ± 0.055
GUCACA | 1.663 ± 0.0013 | 1.77 ± 0.17
AUAUCA | 1.63 ± 0.032 | 1.79 ± 0.12

Variant | normalized RNA/DNA level without ligand (log10) (cyclic di-GMP [1]) | normalized RNA/DNA level with ligand (log10) (cyclic di-GMP [2])
AUAUCU | 1.73 ± 0.062 | 1.86 ± 0.13
AUAUCG | 1.56 ± 0.022 | 1.75 ± 0.068
UUAGUC | 1.72 ± 0.048 | 1.83 ± 0.086
UUAGUU | 1.77 ± 0.019 | 1.86 ± 0.14
UUAGUA | 1.609 ± 0.0054 | 1.79 ± 0.13
UUCAAA | 1.611 ± 0.0055 | 1.79 ± 0.057
UUCAAG | 1.689 ± 0.0038 | 1.82 ± 0.086
GUAGGG | 1.55 ± 0.11 | 1.71 ± 0.025
GUAGGC | 1.6 ± 0.064 | 1.78 ± 0.048
GUAGGU | 1.6 ± 0.028 | 1.8 ± 0.1
CUCACU | 1.57 ± 0.052 | 1.77 ± 0.092
CUCACG | 1.78 ± 0.037 | 1.86 ± 0.16
CUCACA | 1.66 ± 0.033 | 1.83 ± 0.13
CUCACC | 1.7 ± 0.079 | 1.825 ± 0.013
UUAGCU | 1.775 ± 0.0051 | 1.89 ± 0.062
UUAUAC | 1.73 ± 0.018 | 1.86 ± 0.053
UUAUAG | 1.71 ± 0.046 | 1.8 ± 0.11
UUAUAA | 1.6409 ± 0.0011 | 1.81 ± 0.13
GUAUAA | 1.501 ± 0.012 | 1.69 ± 0.088
GUAUAC | 1.661 ± 0.0097 | 1.81 ± 0.084
GUAUAU | 1.6 ± 0.031 | 1.75 ± 0.11
AUAUGG | 1.56 ± 0.033 | 1.75 ± 0.14
AUAUGU | 1.623 ± 0.0061 | 1.8 ± 0.15
AUAUGC | 1.67 ± 0.021 | 1.83 ± 0.13

Variant | normalized RNA/DNA level without ligand (log10) (cyclic di-GMP [1]) | normalized RNA/DNA level with ligand (log10) (cyclic di-GMP [2])
AUAUGA | 1.43 ± 0.066 | 1.63 ± 0.071
UUAGGC | 1.7 ± 0.021 | 1.83 ± 0.14
UUAGGU | 1.7 ± 0.042 | 1.86 ± 0.1
UUAGGG | 1.65 ± 0.018 | 1.8 ± 0.12
UUAGGA | 1.57 ± 0.079 | 1.76 ± 0.089
GUAGCU | 1.74 ± 0.065 | 1.83 ± 0.1
CUAUGU | 1.748 ± 0.012 | 1.84 ± 0.088
CUAUGC | 1.75 ± 0.042 | 1.86 ± 0.12
CUAUGA | 1.6 ± 0.059 | 1.76 ± 0.058
CUAUGG | 1.75 ± 0.049 | 1.87 ± 0.09
GUCAGC | 1.67 ± 0.017 | 1.83 ± 0.17
GUCAGU | 1.63 ± 0.022 | 1.77 ± 0.15
GUCAGA | 1.56 ± 0.057 | 1.76 ± 0.076
AUCACU | 1.74 ± 0.057 | 1.88 ± 0.12
AUCACA | 1.64 ± 0.069 | 1.8 ± 0.062
AUCACG | 1.64 ± 0.012 | 1.78 ± 0.13
AUCACC | 1.77 ± 0.035 | 1.87 ± 0.068
CUCAGU | 1.75 ± 0.018 | 1.83 ± 0.07
CUCAGG | 1.8 ± 0.037 | 1.87 ± 0.14
CUCAGC | 1.76 ± 0.076 | 1.89 ± 0.13
CUCAAG | 1.67 ± 0.022 | 1.84 ± 0.033
CUCAAU | 1.55 ± 0.057 | 1.71 ± 0.082
CUCAAA | 1.38 ± 0.12 | 1.59 ± 0.076
CUCAAC | 1.66 ± 0.033 | 1.8 ± 0.1

Variant | normalized RNA/DNA level without ligand (log10) (cyclic di-GMP [1]) | normalized RNA/DNA level with ligand (log10) (cyclic di-GMP [2])
UUCAGC | 1.78 ± 0.082 | 1.9 ± 0.13
UUCAGG | 1.82 ± 0.048 | 1.88 ± 0.12
UUCAGA | 1.7 ± 0.084 | 1.81 ± 0.069
UUCAGU | 1.75 ± 0.023 | 1.89 ± 0.069
GUCAAC | 1.65 ± 0.055 | 1.79 ± 0.14
GUCAAG | 1.57 ± 0.031 | 1.75 ± 0.077
CUAGGA | 1.54 ± 0.055 | 1.72 ± 0.099
CUAGGG | 1.62 ± 0.022 | 1.78 ± 0.12
CUAGGU | 1.7 ± 0.026 | 1.85 ± 0.14
CUAGGC | 1.74 ± 0.03 | 1.89 ± 0.11
AUAGCU | 1.68 ± 0.024 | 1.78 ± 0.069
UUAUUA | 1.68 ± 0.069 | 1.8 ± 0.13
UUAUUC | 1.76 ± 0.073 | 1.88 ± 0.14
UUAUUG | 1.7 ± 0.026 | 1.83 ± 0.16
UUAUUU | 1.75 ± 0.06 | 1.86 ± 0.17
AUAUAC | 1.68 ± 0.019 | 1.82 ± 0.12
AUAUAU | 1.678 ± 0.0055 | 1.83 ± 0.11
AUAUAA | 1.5 ± 0.042 | 1.67 ± 0.13
UUAUGC | 1.73 ± 0.012 | 1.81 ± 0.1
UUAUGU | 1.7 ± 0.024 | 1.84 ± 0.11
